Test results: the RNAGym collection of RNA variant scans (doi:10.1073/pnas.2313332121)

B1: TPR t1 (parent)
chain: GACCAAUCUGCCCUCAGAGCUCGAGAACAUCUUCGGAUGCAGAGGAGGCAGGCUUCGGUGGCGCGAUAGCGCCAACGUCCUCAACCUCCAAUGCAUCCCACCACAUGAUGAUGCCUGAAGAGCCUUGGUUUUUUG

Variants of: B1
Experiment: polymerase ribozyme fitness, log enrichment relative to wild type (log ratio); higher = more active; in vitro selection for triplet polymerase activity
Procedure, shortened: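 Only genotypes with ≥10 input reads and ≥1 read per output were kept after Illumina sequencing of input and output libraries. These libraries were PCR-built, transcribed mutants of each subunit of a heterodimeric triplet polymerase ribozyme, each put through one triplicate in vitro selection round with frozen incubation at −7 °C, gel excision of extended constructs, streptavidin-bead capture and RT-PCR. Fitness is a logarithmic ratio of genotype enrichment to wild-type enrichment, from inverse-variance-weighted replicate averages, with the logarithm in base 2.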

Row | Variant | polymerase ribozyme fitness (log ratio)
1 | GACCAAUCUGCCCUCAGAGCUCGAGAACAUCUUCGUAUGCAGAGGAGGCAGGCUUGGGUGGCGCGAUAGCGCCAACGUCCUUAACCUCCAAUGCAUCCCACCACAUGAUGAUACCUGAAGAGCCUUGGUUUUUUG [G36U C56G C82U G113A] | -2.31
2 | GACCAAUCUGCCCUCAGAGCUCGAGAACAUCUUCGUAUGCAGAGGAGGCAGGCUUCGGUGGCGCGAUAGCGCCAACGUCCUGAACCUCCAACGCAUCCCACCACAUGAUGAUGCCUGAAGAGCCUUGGUUUUUUG [G36U C82G U92C] | -2.13
3 | GACCAAUCUGCCCUCAGAGCUCGAGAACAUCUUCGUAUGCAGAGGAGGCAGGCUUCGGUGGCGCGAUAGCGCCAACGUCUUCAAUCUCCAAUGCAUCUCACAUCCGGAUGAUGCGUGAAGAGCCUUGGUUUUUUG [G36U C80U C85U C98U C102A A103U A105C U106G C115G] | -5.37
4 | GACCAAUCUGCCCUCAGAGCUCGAGAACAUCUUCGUAUGCAGAGGAGGCAGGCUUCGGUGGCGUGAUAGCGCCAACGUCCUCAACCUCCAAUGCAUCCCACCACAUGAUGAUGCCUGAAGAGCCUUGGUUUUUUG [G36U C64U] | -1.21
5 | GACCAAUCUGCCCUCAGAGCUCGAGAACAUCUUCGUAUGCAGAGGAGGCAGGCUUCGGUGGCGCGAUAGCGCCAACGUCCUCAACCUCCAAUGCAUCCCAUCACAUGAUGAUGCCCGAAGAGCCUUGGUUUUUUG [G36U C101U U116C] | -2.19
6 | GACCAAUCUGCCCUCAGAGCUCGAGAACAUCUUCGUAUGCAGAGGAGGCAGGCUUCGGUGGCGCGAUAGCGCAAACGUCCUCAACCUCCAAUGCAUCCCACCACAUGAUGAUGCCUGAAGAGCUUUGGUUUUUUG [G36U C73A C124U] | 0.315
7 | GACCAAUCUGCCCUCAGAGCUCGAGAACAUCUUCGUAUGCAGAGGAGGCAGGCUUCGGUGGCGCGAUAGCGCUAACGUCCUCAACCUCCAAUGCAUCCCACCACAUGAUGAUGCCUGAAGAGCCUUGGUUUUUUG [G36U C73U] | -2.28
8 | GACCAAUCUGCCCUCAGAGCUCGAGAACAUCUUCGUAUGCAGAGGAGGCAGGCUUGGGUGGCGCGAUAGCGCCAACGUCCUCAACCUCCAAUGCAUCCCACCACAUGAUGAUGCCUGAAGAGGCUUGGUUUUUUG [G36U C56G C123G] | -5.15
9 | GACCAAUCUGCCCUCAGAGCUCGAGAACAUCUUCGUAUGCAGAGGAGGCAGGCUUCGGUGGCGCGAUAGCGCCAACGUCCUCAACCUCAAAUGCAUCCCACCACAUGAUGAUGCCUGAAGAGCCUUGGUUUUUUG [G36U C89A] | -2.46
10 | GACCAAUCUGCCCUCAGAGCUCGAGAACAUCUUCGUAUGCAGAGGAGGCAGGCUUCGGUGGAGCGAUAGCGCCAACGUCCUCAACCUCCAAUGCAUCCCACCACAUGAUGAUGCCUGAAGAGUCUUGCUUUUUUG [G36U C62A C123U G128C] | -3.69
11 | GACCAAUCUGCCCUCAGAGCUCGAGAACAUCUUCGUAUGCAGAGGAGGCAGGCUUCGGUGGCGCGAUAGCGCGAACGUCCUCAACCUCCAAUGCAUCCCACCACAAGAUGAUGCCUGAAGAGCCUUCGUUUUUUG [G36U C73G U106A G127C] | -2.55
12 | GACCAAUCUGCCCUCAGAGCUCGAGAACAUCUUCGUAUGCAGAGGAGGCAGGCUUCGGUGGCGCGAUAGCGGCAACGUCCUCAACCUCCAAUGCAUCCCACUACAUGAUGAUGCCUGAUGAGCCUUGGUUUUUUG [G36U C72G C102U A119U] | -4.07
13 | GACCAAUCUGCCCUCAGAGCUCGAGAACAUCUUCGUAUGCAGAGGAGGCAGGCUUCGGUGGCGCGAUAGCGCCAACGUCCUCAACCUCCAAUGCAUCCCACCACAUGAUGAUGCCUGAAGAGGCUUGGUUGUUUG [G36U C123G U131G] | 0.0423
14 | GACCAAUCUGCCCUCAGAGCUCGAGAACAUCUUCGUAUGCAGAGGAGGCAGGCUUCGGUGGCGCGAUAGCGCCAACGUCCUCAACCUCCAAUGCAUCCCACCAAAUGAUGAUGCCUGAAGAGCCUUGGUUUUUUG [G36U C104A] | -2.99
15 | GACCAAUCUGCCCUCAGAGCUCGAGAACAUCUUCGUAUGCAGAGGAGGCAGGCUUCGGUGGCGCGAUAGCGCUAACGUCCUCAACCUCCAAUGCAUCCCACCACAUGAUGAUGCCUGAUGAGCCUUGGUUUUUUG [G36U C73U A119U] | -1.63
16 | GACCAAUCUGCCCUCAGAGCUCGAGAACAUCUUCGUAUGCAGAGGAGGCAGGCUUUGGUGGCGCGAUAGCGCCAACGUCCUCAACCUCCAAUGCAUCCCACCACAUGAUGAUGCCUGAAGAGCCUUGGUUUUUUG [G36U C56U] | -1.07
17 | GACCAAUCUGCCCUCAGAGCUCGAGAACAUCUUCGUAUGCAGAGGAGGCAGGCUUCGGUGGCGCGAUAGCGCUAACGUCCUCAACCUCCAAUGCAUCCCACCACAUGAUGAUGGGUGACGAGCCUUUGUUUUUUG [G36U C73U C114G C115G A119C G127U] | -6.83
18 | GACCAAUCUGCCCUCAGAGCUCGAGAACAUCUUCGUAUGCAGAGGAGGCAGGCUUCGGUGGCGCGAUAGCGCCAACGUCCUCAACCUCCAAUGCAUCCCACCACAUGAUGAUGCCUGAAGAGGCUUGGUUUUUUG [G36U C123G] | 0.712
19 | GACCAAUCUGCCCUCAGAGCUCGAGAACAUCUUCGUAUGCAGAGGAGGCAGGCUUCGGUGGCGCGAUAGCGCCAACGUCCUCAACCUCCAAUGCAUCCCACCACAUGAUGAUGCCUGAAGAGACUUGGUUUUUUG [G36U C123A] | -0.268
20 | GACCAAUCUGCCCUCAGAGCUCGAGAACAUCUUCGUAUGCAGAGGAGGCAGGCUUCGGUGGCGCGAUAGCGUCAACGUCCUCAACCUCCAAUGCAUCCCACCACAUGAUGAUGCCUGAAGAGCCUUGGUUUUUUG [G36U C72U] | -1.51
21 | GACCAAUCUGCCCUCAGAGCUCGAGAACAUCUUCGUAUGCAGAGGAGGCAGGCUUCGGUGGCGCGAUAGCGCCAACGUCCUCAACCUCCAAUGCAUCCCACUACAUGAUGAUGCCUGAAGAGCCUUGGUUUUUUG [G36U C102U] | -2.93
